Source: paper PMC3893233

How the values were obtained:
Experiment in all cases: SPR
[1] = target: homo-L235V/F243L/R292P/Y300L/P396L (VLPYLL) variant
[2] = target: homo-DLE variant (of Table 2, prepared by control mAb2)
[3] = target: afucosyl mAb
[4] = target: hemi-YWA variant
[5] = target: homo-DLE variant (of Table 1, compared with control mAb1)

Row | Substance | Fold KD = KD (control mAb2)/KD (Fc variant) [1] [fold] | Fold KD = KD (control mAb2)/KD (Fc variant) [2] [fold] | Fold KD = KD (IgG1)/KD (Fc variant) [3] [fold] | Kd [4] [nM] | Kd [5] [nM]
1 | human FcγRIIb, extracellular region (from UniProt P31994 43-217) (receptor) | 0.54 | 6.7 |  |  | 
2 | human FcγRIIIa^V158, extracellular region (receptor) | 33 | 126 | 45 |  | 
3 | human FcγRIIa^R131, extracellular region (receptor) |  | 2.9 | 1.8 |  | 
4 | human FcγRIIa^H131, extracellular region (from UniProt P12318 34-217) (receptor) |  | 1.4 | 0.85 |  | 
5 | human FcγRIa, extracellular region (from UniProt P12314 16-292) (receptor) |  | 3.4 |  |  | 
6 | human FcγRIIIa^F158, extracellular region (from UniProt P08637 17-208) (receptor) |  |  |  | 280 | 5.5
